Read-outs that look alike come from different tables or passages of the source.
Columns and labels:
Assay in all cases: ITC
[1] = molecular target: CaV1.2 IQ domain TripleA mutant (CaV1.2 F1618A, F1619A, Y1622A) (human)
[2] = molecular target: CaV1.2 IQ domain (human)
[3] = molecular target: CaV1.2 IQ domain TripleA mutant (CaV1.2 F1618A, F1619A, Y1622A) (human); remark: listed apart in the source
[4] = molecular target: CaV1.2 IQ domain (Homo sapiens) (UniProt Q13936)

Substance | dH [1] | Kd [2] | dH [2] | Kd [1] | stoichiometry N [1] | Kd [3] | Kd [4]
calmodulin (CaM), full-length (from UniProt P0DP23 1-149) (natural protein) | -10.6 kcal/mol | 0.00085 nM | -5.74 kcal/mol |  |  |  | 
calcium binding protein 1 (CaBP1) Δ2–15 (natural protein) | -4.77 kcal/mol |  |  | 10.9 nM | 0.89 | 221 nM | 
CaBP1 N-lobe, Q9NZU7 |  |  |  |  |  |  | 1100 nM
